Results taken from US20250090663A1.

Columns and labels:
Cyno GPC3.hFc = experiment: SPR (Carterra)
Human GPC3.hFc = experiment: SPR (Carterra)

Kd (Cyno GPC3.hFc): 2.46 nM | Kd (Human GPC3.hFc): 2.63 nM
Substance: HGC33 scFv
